Measurements taken from IntAct's records for PubMed 24282027.

How the values were obtained:
[1] = molecular target: dyn1_human DNM1 (UniProt Q05193)
[2] = molecular target: mfn1_mouse Mfn1 (UniProt Q811U4)
UniProt Q811U4, sequence (Q811U4 whole entry): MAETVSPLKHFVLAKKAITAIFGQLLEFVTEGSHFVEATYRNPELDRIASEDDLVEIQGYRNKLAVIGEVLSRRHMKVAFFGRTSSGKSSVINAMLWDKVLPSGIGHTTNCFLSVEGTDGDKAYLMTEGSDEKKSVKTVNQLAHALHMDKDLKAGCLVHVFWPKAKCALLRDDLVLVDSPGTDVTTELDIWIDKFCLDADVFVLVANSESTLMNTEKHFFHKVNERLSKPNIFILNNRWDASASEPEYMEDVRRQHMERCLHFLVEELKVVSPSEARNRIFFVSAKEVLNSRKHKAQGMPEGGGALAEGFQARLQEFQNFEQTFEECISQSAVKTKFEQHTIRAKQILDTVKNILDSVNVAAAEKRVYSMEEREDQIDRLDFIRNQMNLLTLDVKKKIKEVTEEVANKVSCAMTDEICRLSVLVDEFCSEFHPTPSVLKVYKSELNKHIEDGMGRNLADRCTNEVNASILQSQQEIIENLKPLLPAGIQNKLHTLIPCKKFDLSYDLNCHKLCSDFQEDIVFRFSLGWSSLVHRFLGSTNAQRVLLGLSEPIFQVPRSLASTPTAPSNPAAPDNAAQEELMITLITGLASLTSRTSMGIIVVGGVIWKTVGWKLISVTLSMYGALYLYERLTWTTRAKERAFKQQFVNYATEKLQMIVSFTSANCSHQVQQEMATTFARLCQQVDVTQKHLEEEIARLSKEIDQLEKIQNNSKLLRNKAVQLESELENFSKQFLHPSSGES

UniProt Q05193, sequence (Q05193 whole entry): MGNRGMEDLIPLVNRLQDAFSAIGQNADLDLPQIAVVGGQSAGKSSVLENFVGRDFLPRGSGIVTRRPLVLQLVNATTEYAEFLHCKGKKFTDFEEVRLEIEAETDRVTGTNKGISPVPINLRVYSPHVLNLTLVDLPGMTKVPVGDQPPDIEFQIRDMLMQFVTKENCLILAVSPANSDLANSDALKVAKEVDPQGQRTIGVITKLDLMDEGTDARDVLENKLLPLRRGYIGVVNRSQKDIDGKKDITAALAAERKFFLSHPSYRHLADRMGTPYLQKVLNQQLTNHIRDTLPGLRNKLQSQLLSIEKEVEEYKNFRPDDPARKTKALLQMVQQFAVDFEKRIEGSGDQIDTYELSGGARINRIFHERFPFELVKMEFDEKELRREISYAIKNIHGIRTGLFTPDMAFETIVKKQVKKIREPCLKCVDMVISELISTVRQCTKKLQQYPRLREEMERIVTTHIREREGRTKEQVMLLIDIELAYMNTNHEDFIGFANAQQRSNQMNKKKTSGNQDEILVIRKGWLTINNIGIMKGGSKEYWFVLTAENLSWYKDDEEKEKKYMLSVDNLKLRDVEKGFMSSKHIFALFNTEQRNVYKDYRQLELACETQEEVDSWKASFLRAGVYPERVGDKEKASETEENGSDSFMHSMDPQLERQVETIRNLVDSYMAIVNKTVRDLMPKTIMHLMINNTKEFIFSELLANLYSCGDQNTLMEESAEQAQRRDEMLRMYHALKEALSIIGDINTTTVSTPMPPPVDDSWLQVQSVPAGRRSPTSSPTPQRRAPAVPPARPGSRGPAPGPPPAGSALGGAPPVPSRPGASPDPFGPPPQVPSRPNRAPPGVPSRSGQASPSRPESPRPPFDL

With “Leucine-rich repeat serine/threonine-protein kinase 2 (Homo sapiens), Q5S007 G2019S” the “effect of a mutation on the interaction” value [1] was “increasing interaction” and the “effect of a mutation on the interaction” value [2] was “increasing interaction”.
